Target: EBV glycoprotein gp350 (Epstein-Barr virus (strain B95-8) …, UniProt P03200-1)
Test: flow cytometry on cells

Chain of EBV glycoprotein gp350 (P03200 whole entry): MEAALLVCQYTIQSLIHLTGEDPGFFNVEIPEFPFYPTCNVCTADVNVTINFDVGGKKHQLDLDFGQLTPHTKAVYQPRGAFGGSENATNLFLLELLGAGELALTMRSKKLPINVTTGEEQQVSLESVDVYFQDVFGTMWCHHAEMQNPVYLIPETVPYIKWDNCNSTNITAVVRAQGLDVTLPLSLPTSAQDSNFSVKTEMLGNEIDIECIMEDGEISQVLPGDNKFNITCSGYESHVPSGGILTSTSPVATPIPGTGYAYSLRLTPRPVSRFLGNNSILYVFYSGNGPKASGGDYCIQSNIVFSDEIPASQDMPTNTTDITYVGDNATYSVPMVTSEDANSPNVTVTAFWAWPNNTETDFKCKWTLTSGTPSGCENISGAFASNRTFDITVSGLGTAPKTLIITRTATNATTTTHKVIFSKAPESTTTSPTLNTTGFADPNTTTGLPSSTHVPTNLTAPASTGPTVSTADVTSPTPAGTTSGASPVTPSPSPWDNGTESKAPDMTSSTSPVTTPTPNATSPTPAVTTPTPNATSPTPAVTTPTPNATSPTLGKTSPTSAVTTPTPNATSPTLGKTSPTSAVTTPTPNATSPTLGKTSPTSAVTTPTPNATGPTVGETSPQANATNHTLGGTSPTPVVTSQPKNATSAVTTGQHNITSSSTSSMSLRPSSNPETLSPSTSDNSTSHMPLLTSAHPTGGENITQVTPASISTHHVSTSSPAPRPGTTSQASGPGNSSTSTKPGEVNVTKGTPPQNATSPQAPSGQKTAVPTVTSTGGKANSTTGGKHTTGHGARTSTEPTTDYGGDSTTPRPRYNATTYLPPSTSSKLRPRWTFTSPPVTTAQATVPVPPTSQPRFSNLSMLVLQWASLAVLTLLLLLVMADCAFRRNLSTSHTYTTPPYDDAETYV

binding result: binds
B1: 72A1, original hybridoma antibody (antibody, V domains shown)
VH: EVQLQQSGPELVKPGTSMKISCKASGSSFTDYTMNWMKQSHGKNLEWIGLINPYNGGTRYNQKFKGKATLTLDKSSSTAYMEVLSLTSEDSAVYYCAGGLRRVNWFAYWGQGTLVSVSA
VL: QAVLTQESALTTSPGETVTLTCRSSTGAVTTSNYANWVQEKPDHLFTGLIGGTNNRVPGVPARFSGSLIGDKAALTITGAQTEDEAIYFCVLWHSNHWVFGGGTKLTVL
